Experimental data reported in article PMC9245612 (Proceedings of the National Academy of Sciences of the …, 2022).

Experiments:
[1] = molecular target: the molecule itself; assay: SEC
[2] = substrate: Nc1ncnc2c1ncn2[C@@H]1O[C@H](COP(=O)(O)OP(=O)(O)OP(=O)(O)O)[C@@H](O)[C@H]1O; assay: purified protein; conditions: co-substrate NAD+, 37 °C

B1: human cytosolic NADK, full-length (enzyme, UniProt O95544 1-446, looked up)
chain: MEMEQEKMTMNKELSPDAAAYCCSACHGDETWSYNHPIRGRAKSRSLSASPALGSTKEFRRTRSLHGPCPVTTFGPKACVLQNPQTIMHIQDPASQRLTWNKSPKSVLVIKKMRDASLLQPFKELCTHLMEENMIVYVEKKVLEDPAIASDESFGAVKKKFCTFREDYDDISNQIDFIICLGGDGTLLYASSLFQGSVPPVMAFHLGSLGFLTPFSFENFQSQVTQVIEGNAAVVLRSRLKVRVVKELRGKKTAVHNGLGENGSQAAGLDMDVGKQAMQYQVLNEVVIDRGPSSYLSNVDVYLDGHLITTVQGDGVIVSTPTGSTAYAAAAGASMIHPNVPAIMITPICPHSLSFRPIVVPAGVELKIMLSPEARNTAWVSFDGRKRQEIRHGDSISITTSCYPLPSICVRDPVSDWFESLAQCLHWNVRKKQAHFEEEEEEEEEG
B1 was tested. Which “stoichiometry N” value [1] did it give?
The value was 4.

B2: human NADK2 mature protein (amino acids 47 to 442) (enzyme, UniProt Q4G0N4 47-442, looked up)
chain: LGQGQPRELAGCGSRADGGFRPSRVVVVAKTTRYEFEQQRYRYAELSEEDLKQLLALKGSSYSGLLERHHIHTKNVEHIIDSLRNEGIEVRLVKRREYDEETVRWADAVIAAGGDGTMLLAASKVLDRLKPVIGVNTDPERSEGHLCLPVRYTHSFPEALQKFYRGEFRWLWRQRIRLYLEGTGINPVPVDLHEQQLSLNQHNRALNIERAHDERSEASGPQLLPVRALNEVFIGESLSSRASYYEISVDDGPWEKQKSSGLNLCTGTGSKAWSFNINRVATQAVEDVLNIAKRQGNLSLPLNRELVEKVTNEYNESLLYSPEEPKILFSIREPIANRVFSSSRQRCFSSKVCVRSRCWDACMVVDGGTSFEFNDGAIASMMINKEDELRTVLLEQ
Which results are given for B2?
Km [2]: 2200 µM; stoichiometry N [1]: 2
